In article PMC11334799:

Experiments:
human C3b (human) [1] = target: human C3b (human) (UniProt P01024); experiment: BLI
human C3b (human) [2] = target: human C3b (human) (UniProt P01024)

human C3b (human), sequence (P01024 23-667, chain 1 of 2): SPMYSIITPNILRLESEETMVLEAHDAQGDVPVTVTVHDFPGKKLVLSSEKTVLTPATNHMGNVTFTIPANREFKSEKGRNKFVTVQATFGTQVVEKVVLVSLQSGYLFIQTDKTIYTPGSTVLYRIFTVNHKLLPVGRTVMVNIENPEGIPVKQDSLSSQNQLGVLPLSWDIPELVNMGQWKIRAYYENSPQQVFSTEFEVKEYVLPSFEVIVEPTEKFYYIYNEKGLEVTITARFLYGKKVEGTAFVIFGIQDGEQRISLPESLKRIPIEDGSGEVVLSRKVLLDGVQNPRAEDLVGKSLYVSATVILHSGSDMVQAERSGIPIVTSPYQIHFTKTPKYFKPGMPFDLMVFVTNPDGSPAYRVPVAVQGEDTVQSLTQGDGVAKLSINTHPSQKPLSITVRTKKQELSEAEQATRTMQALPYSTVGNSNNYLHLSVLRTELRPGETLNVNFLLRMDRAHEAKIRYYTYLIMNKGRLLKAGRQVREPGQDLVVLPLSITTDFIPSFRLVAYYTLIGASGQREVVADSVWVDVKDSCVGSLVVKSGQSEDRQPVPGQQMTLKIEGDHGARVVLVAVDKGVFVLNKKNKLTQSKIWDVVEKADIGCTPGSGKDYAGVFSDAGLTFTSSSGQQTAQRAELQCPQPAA
human C3b (human), sequence (P01024 749-1663, chain 2 of 2): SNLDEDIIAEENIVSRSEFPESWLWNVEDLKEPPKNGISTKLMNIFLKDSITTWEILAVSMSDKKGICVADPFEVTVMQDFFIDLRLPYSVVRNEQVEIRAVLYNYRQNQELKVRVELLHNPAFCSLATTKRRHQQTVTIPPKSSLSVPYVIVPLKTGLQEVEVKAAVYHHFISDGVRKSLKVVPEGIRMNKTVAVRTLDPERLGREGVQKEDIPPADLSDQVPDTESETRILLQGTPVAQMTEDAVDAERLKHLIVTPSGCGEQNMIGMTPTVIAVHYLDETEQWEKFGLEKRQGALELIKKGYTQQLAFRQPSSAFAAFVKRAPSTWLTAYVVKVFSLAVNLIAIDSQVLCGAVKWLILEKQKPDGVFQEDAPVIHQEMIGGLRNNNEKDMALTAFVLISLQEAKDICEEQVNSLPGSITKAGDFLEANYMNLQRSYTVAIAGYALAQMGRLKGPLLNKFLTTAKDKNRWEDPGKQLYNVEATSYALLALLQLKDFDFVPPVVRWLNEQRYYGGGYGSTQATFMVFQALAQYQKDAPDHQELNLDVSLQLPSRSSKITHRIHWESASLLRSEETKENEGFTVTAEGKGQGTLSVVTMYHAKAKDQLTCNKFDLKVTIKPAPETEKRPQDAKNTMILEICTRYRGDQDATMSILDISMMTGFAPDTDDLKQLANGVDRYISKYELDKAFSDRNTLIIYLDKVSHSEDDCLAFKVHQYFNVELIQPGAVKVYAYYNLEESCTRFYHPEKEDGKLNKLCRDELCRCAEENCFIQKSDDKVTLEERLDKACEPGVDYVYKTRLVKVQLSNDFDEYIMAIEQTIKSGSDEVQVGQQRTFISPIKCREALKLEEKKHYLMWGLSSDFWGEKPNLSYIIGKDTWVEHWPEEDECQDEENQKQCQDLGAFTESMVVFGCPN

Kd (human C3b (human) [1]): 4.24 nM
Substance: CG001, (CRIg-FH-IgG4 Fc) x2 (from UniProt Q9Y279 20-283; P08603 18-264) (Fc fusion)
AP-mediated hemolysis of rabbit erythrocytes (12% NHS), IC50 (human C3b (human) [2]): 88.9 nM
AP-mediated hemolysis of rabbit erythrocytes (12% NHS), IC95 (human C3b (human) [2]): 207 nM
CP-mediated hemolysis of sheep erythrocytes (0.2% hemolysin, 1% NHS), IC50 (human C3b (human) [2]): 446 nM
CP-mediated hemolysis of sheep erythrocytes (0.2% hemolysin, 1% NHS), IC95 (human C3b (human) [2]): 34200 nM
